In series [1] the target is T1, Mei-P26 NHL RKR (Drosophila melanogaster (Oregon-R), UniProt M9PH32 908-1206, R1150A;K1172A;R1175A).
T1 sequence: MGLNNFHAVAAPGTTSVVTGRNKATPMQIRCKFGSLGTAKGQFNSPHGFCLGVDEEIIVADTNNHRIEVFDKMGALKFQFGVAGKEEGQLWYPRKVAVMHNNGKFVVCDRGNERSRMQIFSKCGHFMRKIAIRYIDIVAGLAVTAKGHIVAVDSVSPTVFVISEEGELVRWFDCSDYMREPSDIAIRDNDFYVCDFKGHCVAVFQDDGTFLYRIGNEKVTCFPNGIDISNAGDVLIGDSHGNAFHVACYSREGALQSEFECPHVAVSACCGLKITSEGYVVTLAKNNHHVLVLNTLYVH
The experiment in a line: EMSA; MST: 20 mM Hepes/KOH pH 7.5, 100 mM NaCl, 5 mM MgCl2, 5 mM DTT, 0.0125% Tween 20, 25 C (Brat: 20 mM Tris 8.0, 150 mM NaCl, 1 mM MgCl2, 5 mM DTT, 0.0125% Tween 20). EMSA, 1:1 mix, 4 C: RNA in 10 mM Tris pH 7.4, 50 mM KCl, 1 mM EDTA, 1 mM DTT, 0.4 mg/ml yeast tRNA; protein in 20 mM Hepes pH 7.5, 5 mM DTT, 100 mM (wt) or 300 mM (mutants) NaCl, 5% glycerol. The settings on record: protein: recombinant; tags: GST removed by TEV; label: 32P. On the technique in general: In EMSA bound probe runs differently from free probe, usually more slowly.

Series [2] concerns the target T2, Mei-P26 NHL wt (Drosophila melanogaster (Oregon-R), UniProt M9PH32 908-1206).
T2 sequence: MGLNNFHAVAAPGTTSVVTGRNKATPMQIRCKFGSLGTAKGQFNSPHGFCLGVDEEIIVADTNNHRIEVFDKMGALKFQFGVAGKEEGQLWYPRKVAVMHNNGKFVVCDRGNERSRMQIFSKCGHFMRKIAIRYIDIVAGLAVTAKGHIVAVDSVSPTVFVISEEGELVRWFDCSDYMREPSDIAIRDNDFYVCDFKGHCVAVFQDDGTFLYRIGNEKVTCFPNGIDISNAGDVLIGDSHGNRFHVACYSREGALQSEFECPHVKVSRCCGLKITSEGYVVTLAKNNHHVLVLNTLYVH
Described as above. The settings on record: protein: recombinant, tags: GST removed by TEV.

Series [3] has as its target T2, Mei-P26 NHL wt. The experiment in a line: MST; MST: 20 mM Hepes/KOH pH 7.5, 100 mM NaCl, 5 mM MgCl2, 5 mM DTT, 0.0125% Tween 20, 25 C (Brat: 20 mM Tris 8.0, 150 mM NaCl, 1 mM MgCl2, 5 mM DTT, 0.0125% Tween 20). EMSA, 1:1 mix, 4 C: RNA in 10 mM Tris pH 7.4, 50 mM KCl, 1 mM EDTA, 1 mM DTT, 0.4 mg/ml yeast tRNA; protein in 20 mM Hepes pH 7.5, 5 mM DTT, 100 mM (wt) or 300 mM (mutants) NaCl, 5% glycerol. The settings on record: protein: recombinant, tags: GST removed by TEV.

A further series concerns the target T3, Brat NHL (Drosophila melanogaster, UniProt Q8MQJ9 756-1037).
T3 sequence: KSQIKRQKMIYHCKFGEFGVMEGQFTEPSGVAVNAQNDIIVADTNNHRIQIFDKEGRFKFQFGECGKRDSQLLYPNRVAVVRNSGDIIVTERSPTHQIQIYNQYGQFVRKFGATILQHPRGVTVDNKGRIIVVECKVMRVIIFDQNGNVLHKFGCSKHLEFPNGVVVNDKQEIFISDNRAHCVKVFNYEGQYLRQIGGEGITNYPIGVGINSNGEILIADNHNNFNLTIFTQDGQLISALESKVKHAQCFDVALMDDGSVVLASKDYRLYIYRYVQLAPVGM
The description is as above. The settings on record: protein: recombinant; tags: His6-ubiquitin fusion (pHUE); label: Cy5.

The target of series [4] is T1, Mei-P26 NHL RKR. Described as above. The following applies: protein: recombinant; tags: GST removed by TEV; label: Cy5.
Another series concerns the target T4, Mei-P26 NHL R1175A (Drosophila melanogaster (Oregon-R), UniProt M9PH32 908-1206, R1175A).
T4 sequence: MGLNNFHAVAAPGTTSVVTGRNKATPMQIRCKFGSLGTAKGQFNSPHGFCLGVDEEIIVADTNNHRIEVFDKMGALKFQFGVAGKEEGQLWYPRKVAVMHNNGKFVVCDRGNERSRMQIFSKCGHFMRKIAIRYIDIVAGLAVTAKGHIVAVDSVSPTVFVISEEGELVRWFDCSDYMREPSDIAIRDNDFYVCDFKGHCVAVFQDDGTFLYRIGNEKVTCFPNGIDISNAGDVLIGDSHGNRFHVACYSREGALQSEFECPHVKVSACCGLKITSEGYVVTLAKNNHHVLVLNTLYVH
The experiment in a line: MST; minor influence of the mutation; MST: 20 mM Hepes/KOH pH 7.5, 100 mM NaCl, 5 mM MgCl2, 5 mM DTT, 0.0125% Tween 20, 25 C (Brat: 20 mM Tris 8.0, 150 mM NaCl, 1 mM MgCl2, 5 mM DTT, 0.0125% Tween 20). EMSA, 1:1 mix, 4 C: RNA in 10 mM Tris pH 7.4, 50 mM KCl, 1 mM EDTA, 1 mM DTT, 0.4 mg/ml yeast tRNA; protein in 20 mM Hepes pH 7.5, 5 mM DTT, 100 mM (wt) or 300 mM (mutants) NaCl, 5% glycerol. The settings on record: protein: recombinant; tags: GST removed by TEV; label: Cy5 (MST); 32P (EMSA).

By Kd is commonly meant the concentration at which binding is half-saturated.

With GCCAUUUUUUAUCUGCCA (ssRNA) [Col4a1], the binding result in the series with Mei-P26 NHL RKR [1] is given as “no binding”; with Mei-P26 NHL wt [2] (label: 32P), “binds”.
With GGAGUCCAACUCC (structured_RNA) [dsRNA hairpin (Lin41 SEQ)], the binding result with Mei-P26 NHL wt [3] (label: Cy5 (MST), 32P (EMSA), hairpin) was “no binding”.
As to AGUAAUUUUUUCUAUUAAAGU (ssRNA) [Hrb27C], the binding result in the series with Mei-P26 NHL RKR [1] is listed as “no binding”; with Mei-P26 NHL wt [2] (label: 32P), “binds”.
On to UUGUUAA (ssRNA) [BRAT1], for which the binding result with Brat NHL is listed as “binds”.
For the molecule TTTTACA (ssDNA) [DNA], the binding result in the series with Mei-P26 NHL wt [3] (label: Cy5 (MST), 32P (EMSA)) is “no binding”.
As to AUUUACA (ssRNA) [SEQ2], the binding result with Mei-P26 NHL wt [3] (label: Cy5) was “binds”.
With GGUCUUUUUACAAAAG (ssRNA) [Mlc-c], the figures for the binding result in the series with Mei-P26 NHL RKR [1] and in the series with Mei-P26 NHL wt [2] (label: 32P) were “no binding” and “binds”, respectively.
Regarding UUUUUAC (ssRNA) [SEQ5], the binding result in the series with Mei-P26 NHL wt [3] (label: Cy5) is “binds”.
AUCCUUUUUAAAACUCC (ssRNA) [LanA]: the binding result is “no binding” in the series with Mei-P26 NHL RKR [1] and “binds” in the series with Mei-P26 NHL wt [2] (label: 32P).
In the case of UUUUACAA (ssRNA) [SEQ44U], the binding result in the series with Mei-P26 NHL wt [3] (label: Cy5) was “binds”.
UUUUACA (ssRNA) [SEQ3]: in the series with Mei-P26 NHL RKR [4], the binding result was “no binding”. Moreover, the dissociation constant Kd in the series with Mei-P26 NHL wt [3] (label: Cy5) was found to be 1700 nM.
Take UUUUUAA (ssRNA) [BRATmut]: the binding result with Mei-P26 NHL wt [3] (label: Cy5) is “binds”.
For the molecule CCCUUUUUUUAUACACAA (ssRNA) [lost], the figures for the binding result with Mei-P26 NHL RKR [1] and with Mei-P26 NHL wt [2] (label: 32P) were “no binding” and “binds”, respectively.
UUUUUUU (ssRNA) [U7 (SEQ1)]: the Kd with Mei-P26 NHL wt [3] (label: Cy5) was determined as 1800 ± 200 nM.
Take UUUUUUUUU (ssRNA) [U9]: the binding result with Mei-P26 NHL wt [2] (label: Cy5 (MST), 32P (EMSA)) was “binds”; with Mei-P26 NHL R1175A, “binds”.

The values are drawn from paper PMC9070667, “Molecular insights into RNA recognition and gene regulation by the TRIM-NHL protein Mei-P26”.
